This note sets out measurements from US20040142862A1, “Methods and compositions for modulating agonist-induced downregulation of G protein-coupled receptors” (The Regents of the University of California, priority 2002, published 2004).

Experiment [1] deals with T1, MOR (Mus musculus, UniProt P42866). Briefly: Agonist-induced downregulation of MOR, radioligand binding. To be noted: 10 μM, 3 hours. It is filed as cell-based. The text has this:
(§1) Agonist-induced downregulation can be determined by any of a variety of methods, including those described herein. For example, cell surface receptors can be measured and/or receptor proteolysis or localization in lysozomes can be determined. Alternatively, receptor downregulation can be determined indirectly by measuring desensitization of receptors after activation with an agonist. Desensitization can be determined, for example, by measuring a biological effect that is mediated by the receptor. (See FIG. 1 for examples of each of these methods.) Generally, it will be most convenient to measure cell surface receptors using a radio- or immunoassay. An exemplary radioligand binding assay useful for determining agonist-induced downregulation is described in Example 1. (See FIG. 1A and Reference 16.) Briefly, cells expressing the cell surface receptor of interest are incubated with a suitable agonist under conditions designed to provide a saturating concentration of agonist over the incubation period. After agonist treatment, the cells are recovered and assayed for radioligand binding. […]
(§2) (See 18 and 45 for the DOR and MOR expression constructs, respectively.) Cells were then chilled on ice, washed extensively and total opioid radioligand binding sites were determined for each cell line (16). […]

Experiment [2] deals with D MOR. Briefly: Agonist-induced downregulation of D MOR, radioligand binding. It is filed as cell-based. To be noted: 10 μM, 3 hours.
Source text: as §1, §2

Experiment [3] concerns the target T1, MOR. Briefly: Membrane adenylyl cyclase assay, MOR cells. Type of experiment: cell-based. As for the experimental part:
(§3) 21. Membrane adenylyl cyclase assays were performed as previously described (9).

Experiment [4] deals with D MOR. The experiment is described as follows: Membrane adenylyl cyclase assay, D MOR cells. Type of experiment: cell-based. The procedure:
as §3

In experiment [5] the target is T1, MOR. Briefly: Colocalization of MOR with LAMP1 and LAMP2. Type of experiment: cell-based. To be noted: 5 μM, 90 min.
Experiment [6] addresses epitope (FLAG)-tagged delta opioid receptor (DOR-1), full length, stably expressed in HEK293 cells (UniProt P32300). Briefly: co-immunoprecipitation: receptor immunoprecipitated, blotted for GASP1.
Experiment [7] deals with epidermal growth factor (EGF) receptor (Homo sapiens, UniProt P00533). Briefly: EGFR assay, ligand-induced downregulation of EGF receptor. Type of experiment: cell-based. To be noted: EGF 30 minutes or 3 hours. As for the experimental part: 32. EGFR assay: Cells expressing only endogenous GASP1 and cells overexpressing GFP-cGASP1 (>40×) were grown to 80% confluency and treated with 5 μM EGF in DMEM for the indicated times or left untreated. Cells were washed with PBS, EGF receptor was immunoprecipitated with Rabbit anti EGFR-affinity resin (Santa Cruz Biotechnology), separated by SDS page and immunoblotted with goat anti-EGFR antibodies (Santa Cruz Biotechnology), followed by HRP-conjugated anti-goat secondary (Jackson Immunoresearch) and development with ECL reagents (Amersham).

For experiment [8], the target named is T2, endogenous GASP1 binding to DOR (Mus musculus, UniProt P32300).
T2 construct: co-immunoprecipitated specifically with full length DOR but not with MOR expressed at similar levels; expressed in transfected cells; host or cells: HEK293 stably expressing DOR (GASP1 endogenous)
The experiment is described as follows: Competition with endogenous GASP1 for DOR binding in cells (co-immunoprecipitation). Type of experiment: cell-based. To be noted: overexpressed approximately 40 fold over endogenous GASP1. The procedure:
30. Assay for coimmunoprecipitation of cGASP1 with opioid receptors: Cells were grown to confluency, washed 2 times with PBS and lysed in 0.1% Triton X-100, 150 mM NaCl, 25 mM KCl, 10 mM Tris-HCl pH 7.4 containing 1 μM leupeptin, 1 μM pepstatin A, 1 μM aprotinin, 2.5 μM Pefabloc SC, and cell debris was removed by centrifugation at 10,000×g for 10 minutes at 4° C. An aliquot of lysate was removed for GASP1 control blot. Lysate was incubated with M2 affinity resin (Sigma) overnight. Pellets were extensively washed and incubated with PNGase (NEB) for 2 hours at 37° C. to degycosylate receptor protein. Samples were eluted in SDS sample buffer. For co-immunoprecipitation with endogenous GASP1, one fourth of eluate was separated by SDS-PAGE on a 12% gel (receptor blot), three quarters on a 7% gel (GASP1 blot). For co-immunoprecipitation with cGASP1 eluate was run on a 12% gel that was later cut and blotted separately for cGASP1 and receptor. Proteins were transferred to nitrocellulose. GASP1 blots were incubated for 2 hours with rabbit anti-GASP1 (1:4000). cGASP1 blots were incubated with rabbit anti-GFP antibodies for 2 hours (1:200) (Clonetech). Both were followed by 1 hour with horseradish peroxidase (HRP)-conjugated anti-rabbit antibody (NEB) (1:3000), and visualized with ECL plus (Amersham). […]

Experiment [9] concerns the target T3, DOR (Mus musculus, UniProt P32300).
T3 construct: co-immunoprecipitated specifically with full length DOR but not with MOR expressed at similar levels; expressed in transfected cells
Briefly: Biotin protection-degradation assay, endocytosed DOR. It is filed as cell-based. To be noted: cells overexpressing cGASP1 vs DOR alone, agonist 3 hours. As for the experimental part: (§4) 17. Biotin protection-degradation assay for proteolysis of surface-biotinylated receptors following endocytosis: Cells were grown to 80% confluency washed 2 times with cold phosphate buffered saline (PBS) then incubated in 3 μg/ml cleavable biotin (Pierce) in PBS at 4° C. for 30 minutes with gentle agitation. Cells were washed 2 times with Tris buffered saline and placed back into medium for treatment. Cells labeled “100% biotinylated” were left on ice in PBS. Cells labeled “100% stripped” were also left on ice in PBS then stripped as described below. Cells were treated with 5 μM agonist for 30 minutes or 3 hours, washed 2 times with cold PBS and the remaining cell surface biotinylated receptors were stripped in 50 mM glutathione, 0.3 M NaCl, 75 mM NaOH, 1% fetal bovine serum at 4° C. for 30 minutes. Glutathione was quenched with a 20 minute wash of PBS with 50 mM iodoacetamide, 1% bovine serum albumin. Cells were extracted in 0.1% Triton X-100, 150 mM NaCl, 25 mM KCl, 10 mM Tris-HCl pH 7.4 containing 1 μM leupeptin, 1 μM pepstatin A, 1 μM aprotinin, 2.5 μM Pefabloc SC, and cell debris was removed by centrifugation at 10,000×g for 10 minutes at 4° C. Receptors were immunoprecipitated using M2 antibody (Sigma), rabbit anti mouse linker (Jackson Immunoresearch) and protein A sepharose (Pharmacia) overnight. […]

Experiment [10] addresses T4, B2AR-Ala (Homo sapiens, UniProt P07550).
T4 construct: expressed in transfected cells
The experiment is described as follows: Co-immunoprecipitation with B2AR-Ala. To be noted: cells stably expressing B2AR-Ala and GFP-cGASP1. Type of experiment: binding. The text has this:
The ability of GASP1 to bind to the B2AR tail in vitro was initially surprising, since the B2AR recycles efficiently after agonist-induced endocytosis and is relatively resistant to proteolysis in HEK293 cells (35). It has been shown previously that efficient recycling of the B2AR in these cells requires the actin cytoskeleton and a distinct set of protein interactions with the distal tip of the cytoplasmic tail (7). Adding a single alanine residue to the carboxyl terminus of the B2AR specifically disrupts this “recycling protein” interaction, creating a mutant B2AR (B2AR-Ala) that is sorted to lysosomes after agonist-induced endocytosis (7) (and see this study FIG. 5C) much like DOR (FIG. 1B). […] Consistent with this, GFP-cGASP1 co-immunoprecipited with B2AR-Ala (FIG. 5B) (30). Furthermore, overexpression of GFP-cGASP1 inhibited degradation of internalized B2AR-Ala (FIG. 5C), providing evidence for a functional role of the GASP1 protein interaction in lysosomal sorting of a non-opioid GPCR.
30. Assay for coimmunoprecipitation of cGASP1 with opioid receptors: Cells were grown to confluency, washed 2 times with PBS and lysed in 0.1% Triton X-100, 150 mM NaCl, 25 mM KCl, 10 mM Tris-HCl pH 7.4 containing 1 μM leupeptin, 1 μM pepstatin A, 1 μM aprotinin, 2.5 μM Pefabloc SC, and cell debris was removed by centrifugation at 10,000×g for 10 minutes at 4° C. […]

A further experiment addresses T5, cytoplasmic tail of DOR (Mus musculus, UniProt P32300).
T5 construct: GST; made in house
T5 sequence (P32300 312-371): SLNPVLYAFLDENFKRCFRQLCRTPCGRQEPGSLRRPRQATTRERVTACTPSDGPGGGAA
The experiment is described as follows: GST affinity chromatography, binding to DOR cytoplasmic tail. To be noted: in vitro. The procedure: Sequence homology to a non-mammalian protein was observed between the carboxyl-terminal regions of GASP1 and Vac8p, a yeast protein involved in late endocytic trafficking (26).
24. Affinity chromatography was carried out as previously described (25).

Experiment [11] deals with T4, B2AR-Ala. The experiment is described as follows: Biotin protection-degradation assay, endocytosed B2AR-Ala. It is filed as cell-based. To be noted: cells overexpressing cGASP1 vs B2AR-Ala alone, isoproterenol. The procedure: as §4
Experiment [12] deals with T3, DOR. The experiment is described as follows: Agonist-induced downregulation of DOR, radioligand binding. Type of experiment: cell-based. To be noted: 5 μM DADLE 3 hours.
The mark [13] stands for this setting: agonist 3 hours, washout, 10 μM naloxone 30 minutes.

Substitutions are numbered along the chain they refer to. “Also recorded” adds a separate entry of the source.

For the molecule `CC(C)C[C@@H](NC(=O)[C@H](Cc1ccccc1)NC(=O)CNC(=O)[C@@H](C)NC(=O)[C@@H](N)Cc1ccc(O)cc1)C(=O)O` [DADLE, Tyr-D-Ala-Gly-Phe-D-Leu], on MOR [1], the “agonist-induced downregulation of MOR (total opioid radioligand binding sites)” value was “not substantially downregulated”. Also, in the experiment on D MOR [2], the “agonist-induced downregulation of D MOR (total opioid radioligand binding sites)” value is listed as “significant downregulation”.
As for `C[C@@H](NC(=O)[C@@H](N)Cc1ccc(O)cc1)C(=O)NCC(=O)N(C)[C@@H](Cc1ccccc1)C(=O)NCCO` [DAMGO], the “desensitization of MOR” value on MOR [3] (5 μM, 10 minute exposure) was “Rapid desensitization”. Also, on MOR [3] (setting [13]), the “resensitization of MOR” value is given as “recovered their ability to mediate agonist-dependent inhibition of adenylyl cyclase”. Besides, the “desensitization of D MOR” value with D MOR [4] (5 μM, 10 minute exposure) was “Rapid desensitization”. Besides, the “resensitization of D MOR” value in the experiment on D MOR [4] (setting [13]) was “neither DOR nor D MOR resensitized significantly”. Also, the “colocalization of MOR with LAMP after agonist” value at MOR [5] is “not colocalized with LAMP”.
In the case of endogenous GASP1 of HEK293 cells, in experiment [6], the percent of endogenous GASP1 immunoprecipitated with DOR was below 1% and the percent of total endogenous GASP1 coimmunoprecipitated with DOR is below 1%.

B1: GFP-cGASP1: GFP-tagged version of cGASP1 stably overexpressed in HEK293 cells (protein)
chain: SETEEETIFGSWFWDGKEVSEEAGPCCVSKPEDDEEMIVESWFWSRDKAIKETGTVATCESKPENEEGAIVGSWFEAEDEVDNRTDNGSNCGSRTLADEDEAIVGSWFWAGDEAHFESNPSPVFRAICRSTCSVEQEPDPSRRPQSWEEVTVQFKPGPWGRVGFPSISPFRFPKEAASLFCEMFGGKPRNMVLSPEGEDQESLLQPDQPSPEFPFQYDPSYRSVQEIREHLRAKESTEPESSSCNCIQCELKIGSEEFEELLLLMEKIRDPFIHEISKIAMGMRSASQFTRDFIRDSGVVSLIETLLNYPSSRVRTSFLENMIRMAPPYPNLNIIQTYICKVCEETLAYSVDSPEQLSGIRMIRHLTTTTDYHTLVANYMSGFLSLLATGNAKTRFHVLKMLLNLSENLFMTKELLSAEAVSEFIGLFNREETNDNIQIVLAIFENIGNNIKKETVFSDDDFNIEPLISAFHKVEKFAKELQGKTDNQNDPEGDQEN
modifications: left off: large carriers; small tags and cut ends
notes: GFP-tagged version of cGASP1 stably overexpressed in HEK293 cells
B1: in [7], the “effect on downregulation of the EGF receptor” value was “unaffected”. Besides, in [8], the “competition with endogenous GASP1 for binding to DOR in vivo” value is given as “substantially reduced the amount of endogenous GASP1 recovered in DOR immunoprecipitates; also recorded: competes with endogenous GASP1 for binding to DOR in vivo”. For the same molecule, in the experiment with DOR [9], the “stability of endocytosed DOR (post-endocytic proteolysis)” value is “significantly more stable”. In the experiment with B2AR-Ala [10], the “binding to B2AR-Ala in vivo (co-immunoprecipitation)” value is “binds in vivo”.

B2: cGASP1: carboxyl-terminal fragment of the GASP1 protein, corresponding to the C-terminal 497 residues of GASP1 (protein)
chain: B1 chain
As for B2, the “input recovered on washed GST-DOR” value with cytoplasmic tail of DOR is given as 3-5%. The “stability of endocytosed B2AR-Ala (post-endocytic proteolysis)” value with B2AR-Ala [11] was “significantly more stable”. Moreover, the “effect on agonist-induced downregulation of DOR” value with DOR [12] (cGASP1 overexpressed 30 fold over endogenous GASP1) was “less significantly”; in the experiment with DOR [12] (cGASP1 overexpressed 40-fold over endogenous GASP1), “significantly inhibited”.
